From publication PMC9204233, “Characterization of Catechol-1,2-Dioxygenase (Acdo1p) From Blastobotrys raffinosifermentans and Investigation of Its Role in the Catabolism of Aromatic Compounds” (Frontiers in Microbiology, 2022)

Legend:
[1] = molecular target: T1, Acdo1-6hp (Acdo1p, catechol-1,2-dioxygenase) (Blastobotrys raffinosifermentans, UniProt A0A060T9I8); assay: spectrophotometric, 2-hydroxymuconic acid formation at […] nm; format: biochemical; conditions: 50 mM Tris-HCl pH 7.5, ~20 °C
T1 construct: expressed in B. raffinosifermentans G1212, HisTrap purified

Oc1ccc(O)c(O)c1 = assay: purified protein; conditions: pH 7.5, 20 °C
Oc1ccccc1O = assay: purified protein; conditions: 50 mM Tris-HCl pH 7.5, ~20 °C
[2] = molecular target: Blastobotrys raffinosifermentans catechol-1,2-dioxygenase with C-terminal 6His-tag (Acdo1-6hp) (Blastobotrys raffinosifermentans LS3); assay: SEC; gel filtration on Superdex 200; 50 mM Tris (pH 8), 0.15 M NaCl; flow 1 mL/min; mass against a calibration curve (blue dextran, ferritin, catalase, bovine albumin, RNAse A, vitamin B12); 'indicative' molecular mass

T1 sequence (A0A060T9I8 1-334 limits assumed): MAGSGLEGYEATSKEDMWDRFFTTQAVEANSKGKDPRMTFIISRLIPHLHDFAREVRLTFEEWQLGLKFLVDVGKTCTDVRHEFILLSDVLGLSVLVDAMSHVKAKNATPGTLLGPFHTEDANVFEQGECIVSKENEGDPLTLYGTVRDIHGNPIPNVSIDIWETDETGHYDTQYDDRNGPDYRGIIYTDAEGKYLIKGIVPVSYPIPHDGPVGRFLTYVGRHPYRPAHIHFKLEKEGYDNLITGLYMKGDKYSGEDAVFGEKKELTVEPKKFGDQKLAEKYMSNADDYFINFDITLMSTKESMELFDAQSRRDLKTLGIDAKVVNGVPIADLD

For Oc1cccc(O)c1O [pyrogallol], the Km [1] was 100 ± 20 µM.
In the case of “Acdo1-6hp (Acdo1p, catechol-1,2-dioxygenase) (Blastobotrys raffinosifermentans)”, the Km (Oc1ccc(O)c(O)c1) is reported as 8 ± 2 µM, the kcat (Oc1ccc(O)c(O)c1) is reported as 17 ± 3.5 s⁻¹ and the kcat/Km (Oc1ccc(O)c(O)c1) is reported as 2.13e+06 ± 971000 M⁻¹ s⁻¹. The Km (Oc1ccccc1O) was 4 ± 1 µM, the kcat (Oc1ccccc1O) was 15.6 ± 0.4 s⁻¹ and the kcat/Km (Oc1ccccc1O) was 3.95e+06 ± 930000 M⁻¹ s⁻¹.
“Blastobotrys raffinosifermentans catechol-1,2-dioxygenase with C-terminal 6His-tag (Acdo1-6hp) (enzyme)” gave a stoichiometry N [2] of 2.
